Laboratory results: patent publication US20040120947A1

Biological target: soluble His-tagged Apo-2L (UniProt P50591)
Assay: KinExA; column head 'Affinity (pM)'

UniProt P50591, sequence (P50591 114-281 limits assumed): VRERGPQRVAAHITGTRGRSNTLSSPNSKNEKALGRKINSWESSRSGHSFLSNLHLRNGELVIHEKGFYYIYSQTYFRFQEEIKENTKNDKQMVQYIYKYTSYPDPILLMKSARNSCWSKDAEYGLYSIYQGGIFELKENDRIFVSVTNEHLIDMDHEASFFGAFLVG

DR5-IgG (Fc fusion)
Kd: 1 pM
